The Kd is the equilibrium constant for the complex coming apart. Higher therefore signals lower affinity. In general, koff refers to the rate constant with which the complex falls apart. Low values mean slow dissociation, high ones fast dissociation. One may read the kon as the second-order rate constant of association. A low value points to slower complex formation. Broadly, the EC50 is the concentration at which the effect is half-maximal. A low value points to greater potency. The IC50 is the concentration needed to halve the response being measured.

The source of these data is patent US12590158 (XIYUAN ANJIAN MEDICINE SHANGHAI, dated 2026).

For test [1], the target named is T1, full-length human TrkA expressed on cells (human, UniProt P04629 33-796). The test can be described thus: cell-based or functional assay.
T1 sequence (P04629 33-796): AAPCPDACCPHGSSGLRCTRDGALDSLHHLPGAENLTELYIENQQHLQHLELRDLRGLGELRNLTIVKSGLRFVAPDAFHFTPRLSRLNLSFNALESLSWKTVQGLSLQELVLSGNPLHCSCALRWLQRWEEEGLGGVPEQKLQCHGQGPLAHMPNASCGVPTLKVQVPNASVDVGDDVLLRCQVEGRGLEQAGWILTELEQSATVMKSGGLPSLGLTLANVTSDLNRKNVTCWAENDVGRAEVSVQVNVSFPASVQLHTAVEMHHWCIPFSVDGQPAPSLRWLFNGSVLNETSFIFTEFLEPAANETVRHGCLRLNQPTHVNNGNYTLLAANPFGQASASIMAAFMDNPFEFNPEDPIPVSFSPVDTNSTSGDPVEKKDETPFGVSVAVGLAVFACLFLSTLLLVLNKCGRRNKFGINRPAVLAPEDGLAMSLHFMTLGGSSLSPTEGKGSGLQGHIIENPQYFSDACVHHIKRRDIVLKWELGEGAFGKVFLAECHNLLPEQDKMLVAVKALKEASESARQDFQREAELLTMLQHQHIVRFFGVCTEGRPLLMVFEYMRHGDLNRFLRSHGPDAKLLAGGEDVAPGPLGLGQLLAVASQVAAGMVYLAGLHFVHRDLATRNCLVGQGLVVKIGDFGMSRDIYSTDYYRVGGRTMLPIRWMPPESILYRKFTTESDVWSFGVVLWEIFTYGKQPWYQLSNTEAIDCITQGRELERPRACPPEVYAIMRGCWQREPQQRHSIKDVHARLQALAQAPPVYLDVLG
For test [2], the target named is T1, full-length human TrkA expressed on …. Nature of the test: cell-based or functional assay. This is another data set of the same source.
In test [3] the target is T2, TrkA extracellular region (33-417) protein comprising human Fc (ACROBiosystems TRA-H5259) (human, UniProt P04629 33-417).
T2 construct: range 33-417; Bought fusion protein; also called human TrkA (33-417); human TrkA extracellular region
T2 sequence (P04629 33-417 limits assumed): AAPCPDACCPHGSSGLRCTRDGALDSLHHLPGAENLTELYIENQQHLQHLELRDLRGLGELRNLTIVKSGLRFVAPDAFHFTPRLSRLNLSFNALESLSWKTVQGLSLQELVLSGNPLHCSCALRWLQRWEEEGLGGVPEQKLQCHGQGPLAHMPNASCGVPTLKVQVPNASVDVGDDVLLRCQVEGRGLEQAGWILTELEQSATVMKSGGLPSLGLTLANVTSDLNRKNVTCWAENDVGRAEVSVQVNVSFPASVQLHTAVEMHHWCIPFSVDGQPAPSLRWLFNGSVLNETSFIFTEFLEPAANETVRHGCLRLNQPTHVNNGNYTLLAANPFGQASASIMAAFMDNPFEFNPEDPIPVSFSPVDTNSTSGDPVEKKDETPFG
The test can be described thus: BLI (ForteBio Octet Red96), TrkA (33-417)-hFc captured on anti-human Fc sensor, antibody in solution. From the text: Example 3: Affinity Assay of Murine Anti-TrkA Antibodies Binding to Human TrkA The affinities of the antibodies were detected with Biomolecular Interaction Detection Platform (ForteBio Octet Red96 (PALL)).
Human TrkA extracellular region (33-417) protein containing human Fc tag was fixed onto a chip by using an anti-human Fc capture sensor (Fortebio, 18-5088), and then bound to gradient concentrations of anti-TrkA antibody.

Test [4] addresses T2, TrkA extracellular region (33-417) …. The test can be described thus: ELISA, coated human TrkA (33-417)-hFc, anti-mouse Fc-HRP. The protocol: (§1) Example 2: ELISA Detection of the Binding of Murine Anti-TrkA Antibodies to Human TrkA The binding abilities of the anti-TrkA antibodies were detected by using a TrkA extracellular region (33-417) protein comprising human Fc (Beijing ACROBiosystems Co., Ltd., TRA-H5259). Each well of a 96-well microtiter plate was coated with 50 ng of human TrkA, washed and blocked, and then added with serially diluted antibodies, and incubated at room temperature for 1 hour. After washing three times, horseradish peroxidase-conjugated goat anti-mouse Fc antibody (Biolegend, 405306) was added and incubated at room temperature for 1 hour. After washing three time, tetramethylbenzidine (TMB, Biolegend, 421101) was added for color development. 1M HCl was used to terminate the color development, and the absorbance values were read at 450 nm with a microplate reader.
In general terms: ELISA stands for enzyme-linked immunosorbent assay.

The target in test [5] is T3, human TrkB extracellular region protein (Yiqiao Shenzhou 10047-H03H) (human, UniProt Q16620 32-430).
T3 construct: extracellular domain; Bought protein
T3 sequence (Q16620 32-430): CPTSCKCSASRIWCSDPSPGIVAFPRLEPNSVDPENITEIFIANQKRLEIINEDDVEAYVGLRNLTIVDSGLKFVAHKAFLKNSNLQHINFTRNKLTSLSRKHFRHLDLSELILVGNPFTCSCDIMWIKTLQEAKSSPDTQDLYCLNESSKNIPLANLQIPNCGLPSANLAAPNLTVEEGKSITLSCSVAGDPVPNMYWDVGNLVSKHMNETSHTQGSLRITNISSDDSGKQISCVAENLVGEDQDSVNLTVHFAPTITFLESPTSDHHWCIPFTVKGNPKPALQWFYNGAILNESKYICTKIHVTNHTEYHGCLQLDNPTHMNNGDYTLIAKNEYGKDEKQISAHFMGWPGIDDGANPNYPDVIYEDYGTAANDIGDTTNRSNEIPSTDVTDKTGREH
The test can be described thus: ELISA, plate coated with human TrkB extracellular region protein, HRP goat anti-mouse Fc detection. The protocol:
as §1
(§2) Example 7: Detection of the Binding of Murine Anti-TrkA Antibodies to TrkA Proteins of the Same Family Each well of a 96-well microtiter plate was coated with 50 ng of human TrkA extracellular region protein, human TrkB extracellular region protein (Beijing Yiqiao Shenzhou Technology Co., Ltd., 10047-H03H), human TrkC extracellular region protein (Beijing Yiqiao Shenzhou Technology Co., Ltd., 10048-H03H). The bindings of the anti-TrkA antibodies to human TrkA and the two proteins of the same family were detected according to the method described in Example 2.

Test [6] has as its target T2, TrkA extracellular region (33-417) …. The test can be described thus: competition ELISA, coated TrkA (33-417)-hFc, antibody titrated, competitor biotin-labeled human NGF. The protocol: Each well of a 96-well microtiter plate was coated with 50 ng of TrkA extracellular region (33-417) protein fused to human Fc, washed three times and blocked with 3% BSA for 1 hour. […] Each well was added with 100 μl and incubated at room temperature for 30 minutes. […] Streptavidin-labeled horseradish peroxidase (Streptavidin-HRP, Biolegend, 405210) was added and incubated for 0.5 hours. After washing three times, TMB was added to the plate, and the absorbance at 450 nm was read by a microplate reader after the color development was terminated.

In test [7] the target is T1, full-length human TrkA expressed on …. Nature of the test: cell-based or functional assay. The source holds these as a separate data set.
In test [8] the target is T4, rat TrkA extracellular region fusion protein (fused to human Fc) (Yiqiao Shenzhou 80243-R03H) (rat, UniProt P35739 33-418).
T4 construct: extracellular domain; Bought fusion protein
T4 sequence (P35739 33-418, stated change not applied): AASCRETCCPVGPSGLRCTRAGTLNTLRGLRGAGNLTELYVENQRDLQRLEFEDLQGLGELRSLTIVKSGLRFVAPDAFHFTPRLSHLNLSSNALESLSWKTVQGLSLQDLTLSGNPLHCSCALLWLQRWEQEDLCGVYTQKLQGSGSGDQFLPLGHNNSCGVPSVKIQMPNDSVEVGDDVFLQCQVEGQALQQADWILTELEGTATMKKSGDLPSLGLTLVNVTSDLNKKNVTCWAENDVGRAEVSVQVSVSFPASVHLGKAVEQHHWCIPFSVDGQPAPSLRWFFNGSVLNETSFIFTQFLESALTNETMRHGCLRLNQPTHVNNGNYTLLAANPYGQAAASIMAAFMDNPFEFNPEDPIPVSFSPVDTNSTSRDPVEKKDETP
Nature of the test: ELISA, plate coated with rat TrkA extracellular region-hFc, HRP goat anti-mouse Fc detection. The protocol:
as §1
(§3) In addition, the species cross-reactivities of anti-TrkA antibodies were detected with monkey TrkA (Hangzhou Haoyang Biotechnology Co., Ltd., HSP037-05), rat TrkA (Beijing Yiqiao Shenzhou Technology Co., Ltd., 80243-R03H), mouse TrkA (Beijing Yiqiao Shenzhou Technology Co., Ltd., 51103-M02H) extracellular region fusion protein (fused to human Fc).

Test [9] deals with T5, human TrkC extracellular region protein (Yiqiao Shenzhou 10048-H03H) (human, UniProt Q16288 32-429).
T5 construct: extracellular domain; Bought protein
The test can be described thus: ELISA, plate coated with human TrkC extracellular region protein, HRP goat anti-mouse Fc detection. The protocol:
as §1, §2

Test [10] has as its target fusion protein (fused to human Fc) containing only the portion of human TrkA extracellular region that binds NGF (TrkA 192-402) (ACROBiosystems TRA-H5258) (human) (UniProt P04629). The test can be described thus: ELISA, coated human TrkA (192-402)-hFc.
Test [11] concerns the target T6, mouse TrkA extracellular region fusion protein (fused to human Fc) (Yiqiao Shenzhou 51103-M02H) (mouse, UniProt Q3UFB7 34-420).
T6 construct: extracellular domain; Bought fusion protein
The test can be described thus: ELISA, plate coated with mouse TrkA extracellular region-hFc, HRP goat anti-mouse Fc detection. The protocol:
as §1, §3

The target of test [12] is T7, human TrkC expressed on CHO cells (TrkC/CHO, ThermoFisher K1515) (human, UniProt Q16288 32-839).
T7 construct: whole, on cells
T7 sequence (Q16288 32-839): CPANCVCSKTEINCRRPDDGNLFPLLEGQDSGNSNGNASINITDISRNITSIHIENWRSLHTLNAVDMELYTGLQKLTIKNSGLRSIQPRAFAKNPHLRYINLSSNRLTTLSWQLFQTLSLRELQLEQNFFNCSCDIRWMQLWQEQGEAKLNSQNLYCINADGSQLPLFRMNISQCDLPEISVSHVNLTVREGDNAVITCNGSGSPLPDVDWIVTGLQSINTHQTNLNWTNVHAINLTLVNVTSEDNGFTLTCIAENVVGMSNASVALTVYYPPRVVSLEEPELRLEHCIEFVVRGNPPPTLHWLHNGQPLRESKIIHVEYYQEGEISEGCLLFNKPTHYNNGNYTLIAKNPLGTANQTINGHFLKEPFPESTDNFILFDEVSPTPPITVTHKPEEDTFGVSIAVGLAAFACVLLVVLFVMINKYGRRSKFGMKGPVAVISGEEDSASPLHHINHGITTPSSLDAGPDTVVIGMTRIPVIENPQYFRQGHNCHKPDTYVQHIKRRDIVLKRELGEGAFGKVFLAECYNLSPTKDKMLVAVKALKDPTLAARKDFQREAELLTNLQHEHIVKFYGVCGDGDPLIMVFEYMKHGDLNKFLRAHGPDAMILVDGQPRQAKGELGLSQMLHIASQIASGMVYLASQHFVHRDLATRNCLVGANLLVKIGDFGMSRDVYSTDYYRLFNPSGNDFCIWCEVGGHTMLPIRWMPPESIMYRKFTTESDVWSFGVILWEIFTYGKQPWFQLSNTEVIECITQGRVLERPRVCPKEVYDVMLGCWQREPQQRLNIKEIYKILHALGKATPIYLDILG
Nature of the test: flow cytometry on TrkC/CHO cells, FITC goat anti-human Fc. The protocol: (§4) CHO-K1 was used as a negative control. The binding of the humanized antibodies to the four cell lines was detected by flow cytometry.
(§5) The cells were cultured according to the manufacturer's instruction. The cells were harvested in the logarithmic growth phase, re-suspended in flow buffer (PBS+2% FBS, pH 7.4), and added into 96-well plate, 10^5 cells per well (50 µl). 50 µl of 100 µg/mL humanized anti-TrkA antibody was added, incubated at room temperature for 60 min, and centrifuged at 1200 rpm. The supernatant was discarded and the cells were washed 3 times. FITC-labeled goat anti-human Fc antibody (Abeam, ab97224) was diluted to 5 µg/mL with flow buffer and used to re-suspend the cells, incubated at room temperature for 30 min in the dark, centrifuged, and the supernatant was discarded. After washing 3 times, the cells were re-suspended with 7AAD solution (Biolegend, 420403), incubated for 10 min at room temperature, and the binding of the antibody was detected with a flow cytometer (BioRad, ZE5).

In test [13] the target is T8, human TrkB expressed on CHO cells (TrkB/CHO, ThermoFisher K1491) (human, UniProt Q16620 32-822).
T8 construct: whole, on cells
T8 sequence (Q16620 32-822): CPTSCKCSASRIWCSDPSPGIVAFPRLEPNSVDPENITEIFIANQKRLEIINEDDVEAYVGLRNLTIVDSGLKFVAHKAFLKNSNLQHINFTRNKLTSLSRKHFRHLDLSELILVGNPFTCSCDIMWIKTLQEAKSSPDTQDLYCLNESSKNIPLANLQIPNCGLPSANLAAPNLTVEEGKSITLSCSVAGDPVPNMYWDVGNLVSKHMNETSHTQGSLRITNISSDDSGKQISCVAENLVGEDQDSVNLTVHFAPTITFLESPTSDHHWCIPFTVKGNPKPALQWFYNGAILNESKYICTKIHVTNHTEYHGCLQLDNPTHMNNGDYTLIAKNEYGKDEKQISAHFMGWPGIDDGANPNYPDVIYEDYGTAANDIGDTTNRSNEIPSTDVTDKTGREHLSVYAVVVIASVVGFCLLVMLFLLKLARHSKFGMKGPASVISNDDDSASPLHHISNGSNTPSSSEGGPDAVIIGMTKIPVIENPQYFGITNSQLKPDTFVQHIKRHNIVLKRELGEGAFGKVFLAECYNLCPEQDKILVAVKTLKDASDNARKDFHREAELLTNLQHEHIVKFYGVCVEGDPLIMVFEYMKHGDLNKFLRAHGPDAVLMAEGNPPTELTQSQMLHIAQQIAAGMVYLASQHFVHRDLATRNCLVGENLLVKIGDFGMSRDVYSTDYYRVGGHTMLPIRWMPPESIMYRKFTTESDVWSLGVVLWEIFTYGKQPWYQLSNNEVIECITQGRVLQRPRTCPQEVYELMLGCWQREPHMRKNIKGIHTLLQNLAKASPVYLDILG
Nature of the test: flow cytometry on TrkB/CHO cells, FITC goat anti-human Fc. The protocol:
as §4, §5
On the technique in general: A flow cytometer gives signals particle by particle.

Bounds are passed on as bounds.

T6 sequence (Q3UFB7 34-420, stated change not applied): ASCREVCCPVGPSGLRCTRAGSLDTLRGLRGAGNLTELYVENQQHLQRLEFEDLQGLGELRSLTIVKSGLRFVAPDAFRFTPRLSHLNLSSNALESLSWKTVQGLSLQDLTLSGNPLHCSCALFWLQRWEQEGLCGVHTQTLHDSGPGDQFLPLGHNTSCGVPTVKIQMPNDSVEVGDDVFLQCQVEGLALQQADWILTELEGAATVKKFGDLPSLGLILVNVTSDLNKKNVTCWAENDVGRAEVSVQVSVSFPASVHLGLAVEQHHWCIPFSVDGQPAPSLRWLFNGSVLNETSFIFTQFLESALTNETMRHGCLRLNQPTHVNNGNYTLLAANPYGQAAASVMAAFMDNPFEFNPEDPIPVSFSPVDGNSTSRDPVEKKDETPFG
Chain of fusion protein (fused to human Fc) containing only the portion of human TrkA extracellular region that binds NGF (TrkA 192-402) (ACROBiosystems TRA-H5258) (human) (P04629 192-402 limits assumed, form in doubt): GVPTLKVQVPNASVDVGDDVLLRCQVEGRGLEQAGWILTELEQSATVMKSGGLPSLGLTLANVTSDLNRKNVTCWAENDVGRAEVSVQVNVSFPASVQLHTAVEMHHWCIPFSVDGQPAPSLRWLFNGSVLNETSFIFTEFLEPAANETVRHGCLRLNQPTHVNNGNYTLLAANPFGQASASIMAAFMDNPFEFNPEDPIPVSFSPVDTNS

B1: anti-TrkA antibody 5A3 (antibody, V domains shown)
VH: QVQLQQSGAELMKPGASVKISCKAIGYTFSRYWIEWVKQRPGHGLEWIGEILPGRGVTNYNENFKGKATFTVDISSTTTYIQFSSLTSEDSAVYYCARSNYGDYDFWGQGTSLTVSS
VL: QTVVTQESALTTSPGETVTLTCRSSSGAVTTSNHANWVQEKPDHLFTSLMGGTNNRAPGVPARFSGSLIGDKAALTITGAQTEDEAIYFCALWYSNHWVFGGGTKLTVL
notes: Murine monoclonal antibody purified from hybridoma medium by protein G
For the molecule B1, the “inhibition of NGF-induced TrkA/Ba/F3 cell proliferation at 2.5 µg/mL (16.67 nM) or higher” value (“inhibition” below) in test [1] was 100%. Besides, the “IC50 of inhibiting NGF-induced TrkA/Ba/F3 cell proliferation” value in test [2] is 0.422 nM. Moreover, the Kd in test [3] was 0.0155 nM. In test [3], this molecule displayed an off-rate constant (koff) of 1.88e-05 s⁻¹. In addition, the on-rate (kon) in [3] was found to be 1.21e+06 M⁻¹ s⁻¹. The values for the EC50 in test [4] and in test [10] were 0.242 nM and 0.154 nM, respectively. Also, the binding result is “no binding (tested: 66.67 nM)” in [5], “binds” in test [8], “no binding (tested: 66.67 nM)” in test [9] and “binds” in test [11]. The same molecule registered an IC50 in test [6] of 1.76 nM. The “IC50 of inhibiting NGF-induced TF-1 cell proliferation” value in [7] was 6.49 nM.

B2: anti-TrkA antibody 26E9 (antibody, V domains shown)
VH: QVQLQQPGAELVKPGASVKLSCKSSGYTFTNYWMHWVKQRPGQGLEWIGEIYPSNGRTNYNEKFKNRATLTVDISSSTAYMQLSSLTSEDSAVYYCARSRYDPMEDWGQGTSVTVSS
VL: QIVLTQSPAIMSASPGEKVTMTCSASSSVGYMHWYQQKSGTSPKRWIYDTSKLASGVPTRFSGSGSGTSYSLTISSMEAEDAATYYCQQWSSIPLTFGSGTKLEIK
notes: as for B1
Consider B2, for which the “inhibition” value in test [1] is 100%. Also, in test [2], the “IC50 of inhibiting NGF-induced TrkA/Ba/F3 cell proliferation” value was determined as 1.54 nM. The same molecule showed a Kd in [3] of 0.0267 nM. This molecule also had a koff in test [3] of 2.46e-05 s⁻¹. The same molecule returned a kon in test [3] of 923000 M⁻¹ s⁻¹. Moreover, the EC50 came out at 0.099 nM in [4] and 0.068 nM in test [10]. Besides, the binding result in [5] was “no binding (tested: 66.67 nM)”; in [8], “binds”; in test [9] it was “no binding (tested: 66.67 nM)”; in test [11] it was “binds”. The half-maximal inhibitory concentration (IC50) in test [6] worked out at 2.04 nM. The “IC50 of inhibiting NGF-induced TF-1 cell proliferation” value in [7] stood at 1.39 nM.

B3: anti-TrkA antibody 42F5 (antibody, V domains shown)
VH: QVQLQQPGAELVKPGASVKLSCKSSGYTFTNYWMHWVRQRPGQGLEWIGEIYPNNGRVNYNEKFKNRATLTVDISSSTAYMQLSSLTSEDSAVYYCARSRYDPMEDWGQGTSVTVSS
VL: QVVLTQSPAIMSASPGEKVTMTCSASSSVGYMHWYQQKSGTSPKRWIYDTSKLASGVPTRFSGSGSGTSYSLTISSMEAEDAATYFCQQWSSIPLTFGSGTRLEIK
notes: as for B1
With B3, the “inhibition” value in test [1] worked out at 100%. Also, in [2], the “IC50 of inhibiting NGF-induced TrkA/Ba/F3 cell proliferation” value is 1.25 nM. In addition, the Kd in test [3] stood at 0.00218 nM. The same molecule returned a koff in test [3] of 2.07e-06 s⁻¹. Besides, in test [3], the kon was 947000 M⁻¹ s⁻¹. In addition, the EC50 amounted to 0.128 nM in test [4] and 0.134 nM in test [10]. The binding result is listed as “no binding (tested: 66.67 nM)” in test [5], “binds” in [8], “no binding (tested: 66.67 nM)” in [9] and “binds” in [11]. Further, in [6], the IC50 is 2.35 nM. The “IC50 of inhibiting NGF-induced TF-1 cell proliferation” value in [7] was 1.3 nM.

B4: anti-TrkA antibody 11G8 (antibody, V domains shown)
VH: QVQLQQPGAELVKPGASVKLSCKASGYTFTSYWMHWVKQRPGQGLEWIGEINPNNGLTNYDEKFKTKATLTIDKSSRTAYIQLSSLTSEDSAVYYCAKYGNYVAFAFWGQGTLVTVSA
VL: DIQMTQSPASLSATVGETVTITCRASENIYSYVAWYQQKQGKSPQLLVHNAKTLAEGVPSRFSGSGSGTQFSLKINGLHPEDFGSYYCQHHYGIPLTFGAGTKLELK
notes: as for B1
B4: the “inhibition” value in test [1] worked out at 100%. The “IC50 of inhibiting NGF-induced TrkA/Ba/F3 cell proliferation” value in test [2] amounted to 1.65 nM. The same molecule gave a Kd in [3] of less than 0.001 nM. Further, in test [3], the koff was less than 1e-07 s⁻¹. The molecule further gave an association rate constant (kon) in test [3] of 992000 M⁻¹ s⁻¹. The concentration for a half-maximal effect (EC50) in [4] was 0.114 nM; in test [10], 0.071 nM. Besides, the binding result in test [5] is “no binding (tested: 66.67 nM)”; in test [8] it was “binds”; in [9] it was “no binding (tested: 66.67 nM)”; in test [11], “binds”. The same molecule showed an IC50 in test [6] of 1.9 nM. The “IC50 of inhibiting NGF-induced TF-1 cell proliferation” value in test [7] turned out to be 1.09 nM.

B5: humanized anti-TrkA antibody 42F5-15 (antibody, V domains shown)
VH: QVQLVQSGAEVKKPGASVKVSCKSSGYTFTNYWMHWVRQAPGQGLEWMGEIYPNNARVNYNEKFKNRVTMTVDISISTAYMELSRLRSDDTAVYYCARSRYDPMEDWGQGTTVTVSS
VL: DVQLTQSPSSLSASVGDRVTITCSASSSVGYMHWYQQKPGKAPKRLIYDTSKLASGVPSRFSGSGSGTDYTLTISSLQPEDFATYFCQQWSSIPLTFGQGTRLEIK
notes: 42F5-01 with NG55-56 of the VH mutated to NA55-56
Take B5: the binding result in [12] and in test [13] was “no binding” throughout.
